US20250090677A1, “ANTI-CDH6 ANTIBODIES AND ANTIBODY-DRUG CONJUGATES THEREOF” (MULTITUDE THERAPEUTICS INC., priority 2021, published 2025)

Columns and labels:
[1] = tested on: OVCAR-3 cells (human ovarian cancer cells); test: Flow cytometry recognition of cell-surface CDH6, OVCAR-3 positive cells; assay type: binding; conditions: antibody diluted to 20 μg/mL, FCM, FIG. 24
Description: (§1) The binding of 13 CDH6 monoclonal antibodies to CDH6 on the cell surface was analyzed by Flow cytometry (FCM) using OVCAR-3 cells (human ovarian cancer cells) as positive cells and HepG2 cells (human hepatoma cells) as negative cells. Cells in the logarithmic growth phase were collected, adjusted to a cell density of 5×10^6 cells/mL, and pre-cooled on ice. 13 CDH6 monoclonal antibodies were diluted to 20 μg/mL in 2% FBS-containing pre-cooled saline. 100 μL of cells were taken and added with an equal volume of the diluted CDH6 monoclonal antibodies described above, and the mixture was reacted at 4° C. for 30 min in the dark. After the reaction was completed, the cells were washed twice with […] pre-cooled saline (6000 rpm, 45 s). The secondary antibody PE anti-mouse IgG (BD Pharmingen) was diluted at 1:500 with 2% FBS-containing pre-cooled saline, and each of the washed cells were resuspended with 100 μL of diluted secondary antibody and reacted for 30 min at 4° C. in the dark. After the reaction was completed, the cells were washed twice with 2% FBS-containing pre-cooled saline (6000 rpm, 45 s). The cells were resuspended in 400 μL of saline. The flow cytometer (BD Calibur) was used to analyze the binding ability of antibodies to cell surface antigens.

[2] = tested on: HepG2 cells (human hepatoma cells); test: Flow cytometry, HepG2 negative cells; assay type: binding; conditions: antibody diluted to 20 μg/mL, FCM
Description: as §1

recombinant protein CDH6 = target: T1, recombinant protein CDH6 (Homo sapiens, UniProt P55285); test: ELISA binding activity of mouse monoclonal antibodies to CDH6 recombinant protein; conditions: CDH6 coated 1 μg/mL, FIG. 23
T1 construct: CDH6 extracellular region (Ser 54-Ala 615) was used as an immunogen; purchased ACRO Biosystems CA6-H5229
T1 sequence (P55285 54-615): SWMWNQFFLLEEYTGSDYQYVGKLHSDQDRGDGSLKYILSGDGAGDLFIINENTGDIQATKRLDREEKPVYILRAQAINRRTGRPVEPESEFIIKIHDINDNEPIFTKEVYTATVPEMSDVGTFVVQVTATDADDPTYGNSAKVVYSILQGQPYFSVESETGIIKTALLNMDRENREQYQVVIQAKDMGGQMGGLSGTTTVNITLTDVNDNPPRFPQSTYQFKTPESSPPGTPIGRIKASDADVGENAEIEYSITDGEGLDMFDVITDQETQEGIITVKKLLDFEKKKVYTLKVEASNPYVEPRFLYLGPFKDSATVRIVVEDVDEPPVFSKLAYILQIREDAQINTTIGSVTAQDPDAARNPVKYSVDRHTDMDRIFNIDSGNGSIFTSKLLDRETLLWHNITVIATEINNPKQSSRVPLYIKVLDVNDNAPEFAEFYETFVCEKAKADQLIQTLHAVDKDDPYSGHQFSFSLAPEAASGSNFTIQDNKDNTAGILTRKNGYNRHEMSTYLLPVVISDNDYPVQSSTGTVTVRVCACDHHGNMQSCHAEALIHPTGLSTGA
Description: The recombinant protein CDH6 was coated on ELISA plates at 1 μg/mL overnight at 4° C.; after being washed with PBST, the plate was added with 10% fetal bovine serum, and the mixture was blocked at 37° C. for 1 h; the plate was added with 13 monoclonal antibodies of CDH6 with different dilutions (0.1 ng/mL to 100 ng/mL), and the mixture was reacted at 37° C. for 1 h; after being washed with PBST, the plate was added with horseradish peroxidase-labeled goat anti-human IgG secondary antibody (Goat anti Mouse (HRP), Thermo Fisher Scientific), and the mixture was reacted at 37° C. for 30 min; after the plate was repeatedly washed with PBST 5 times, the remaining droplets on the absorbent paper were patted as much as possible; each well of the plate was added with 100 μL of TMB (eBioscience) and placed in the dark at room temperature (20±5° C.) for 1.5 min; each well of the plate was added with 100 μL of 2 N H2SO4 stop buffer for stopping substrate reaction, OD values at 450 nm were read using a microplate reader, and the binding ability of the antibody to the target antigen CDH6 was analyzed. As shown in Table 1 and FIG. 23, the sensitivity of the anti-CDH6 antibody and CDH6 recombinant protein of the present application was not more than 12.5 ng/mL, wherein #13 (CL069463 antibody) was not more than 3.125 ng/mL, #23 (CL069707 antibody) was not more than 1.56 ng/mL, #4 (CL069066 antibody) was not more than 6.3 ng/mL, and #16 (CL069439 antibody) was not more than 1.0 ng/mL.

[3] = tested on: Renal Carcinoma Patient-Derived Xenograft (PDX); test: In vivo antitumor effect in renal carcinoma patient-derived xenograft (PDX) model; design: species or system mice; conditions: 10 mg/kg intravenous, compared with IgG-LP1 or IgG-GGFG-DXd, FIG. 21A
Description: 6-8 weeks Nu/Nu mice were purchased from Zhejiang Charles River Co., Ltd. The tumors were sliced into 3 mm×3 mm×3 mm (about 50-90 mg) fragments and implanted subcutaneously into the right flank of mice. Then the animals were checked daily for tumor growth and body weight. The mice were randomized into 5 groups when mean tumor volume reaches ˜150 mm^3. The grouping day was regarded as day 0. Mice were then injected intravenous with 10 mg/kg of one of the following substances:10 mg/kg IgG-LP1, CL069707-H1L1-LP1, IgG-GGFG-DXd, Reference ADC and Reference Antibody-LP1. Tumor volumes were measured two times per week from day of treatment initiation by Caliper and calculated as follows: […].

[4] = Hydrophilicity of antibody-drug conjugate by HIC-HPLC (common procedure H); assay type: physicochemical; conditions: shorter retention time = better hydrophilicity
Source text: The Hydrophilicity of the antibody-drug conjugate can be determined by hydrophobic interaction chromatography (HIC) in high-performance liquid chromatography (HPLC) analysis using the following method. • HPLC system: Agilent 1260 Infinity II HPLC system (Agilent Technologies, Inc.) • Detector: Ultraviolet absorption spectrometer (measurement wavelength: 280 nm) • HIC-Column: TOSOH TSKgel Butyl-NPR (4.6 mm I.D.×3.5 cm, 2.5 μm) • Mobile phase A: 1.5 mol/L (NH4)2SO4, 50 mmol/L KHPO4, pH7.0 • Mobile phase B: 50 mmol/L KHPO4, 25% (v/v) isopropanol, pH7.0 • Isocratic Operation: 25 min • Column temperature: room temperature • Gradient program (B %): 0%-25% (0 min-1 min), 25% (1 min-3 min), 25%-80% (3 min-13 min), 80% (13 min-17 min), 80%-0% (17 min-17.10 min), 0% (17.10 min-25 min) • Sample injection: 10 μL
It is confirmed that the shorter the retention time, the better of the sample's hydrophilicity

[5] = Aggregation of antibody-drug conjugate by SEC-HPLC (common procedure G); assay type: physicochemical
Source text: The aggregation in the antibody-drug conjugate can be determined by size exclusion chromatography (SEC) in high-performance liquid chromatography (HPLC) analysis using the following method. • HPLC system: Agilent 1260 Infinity II HPLC system (Agilent Technologies, Inc.) • Detector: Ultraviolet absorption spectrometer (measurement wavelength: 280 nm) • SEC-Column: TOSOH TSKgel G3000SWXL (7.8×300 mm, 5 μm) • Mobile phase: 200 mmol/L KHPO4, 150 mmol/L NaCl, 15% (v/v) isopropanol, pH7.0 • Flow rate: 0.75 mL/min • Isocratic Operation: 18 min • Column temperature: room temperature • Sample injection: 50 μg
The SEC chromatogram of quality control (QC, CL069707-H1L1) was shown in FIG. 5A, it is confirmed that the molecular weight of the main QC product is about 150 kDa and the monomer retention time is around 9.5-10.5 min. Meanwhile, the retention time of aggregation is earlier than that of monomer.

B1: CL069707: mouse anti-CDH6 monoclonal antibody; VH SEQ ID NO: 18, VL SEQ ID NO: 23 (antibody, V domains shown)
VH: EVHLVESGGGLVQPKGSLKLSCVASGFTFTTYAMNWVRQAPGKGLEWVARIRIKNNNYATYYADSVTDRFTISRDDSQSMLYLQMNNLKTEDTAMYYCVRPDYGNYGLAYWGQGTLVTVSA
VL: EIVLTQSPTTMAASPGEKITITCSASSSISSHYLHWYQQKPGFSPKLLIYRSFYLASGVPLRFTGSGSGTSYSLTIGTMEAEDVATYYCQQDIVPLTFGAGTKLELK
modifications: CL069707 VH; Ch069707 VH; CL069707 VL; Ch069707 VL
**Q.** What does the source list for B1?
**A.** specific recognition of OVCAR-3 cells (positive cells) [1]: capable of specifically recognizing; binding to negative cells HepG2 [2]: no binding was observed; sensitivity of the anti-CDH6 antibody and CDH6 recombinant protein (ELISA) (recombinant protein CDH6): not more than 1.56 ng/mL

B2: CL069463: mouse anti-CDH6 monoclonal antibody; VH SEQ ID NO: 41, VL SEQ ID NO: 46 (antibody, V domains shown)
VH: EVQLVESGGGLVQPKGSLKLSCAASGFTFNTYALTWVRQAPGKGLEWVGRIKSKNKDYETYYADSVKDRFTISRNDSQSLLYLQMNNLKTEDTAIYYCVRQNWNYFDYWGQGTTLTVSS
VL: DIQMTQSPASLAASVGETVTITCRASENIYYSLAWYQQRQGKSPQLLIYNANSLKDGVPSRFSGSGSGTQYSMKINSMQPEDTATYFCQQAYDVPPTFGGGTKLEIK
modifications: CL069463 VH; Ch069463 VH; CL069463 VL; Ch069463 VL
**Q.** What does the source list for B2?
**A.** specific recognition of OVCAR-3 cells (positive cells) [1]: capable of specifically recognizing; binding to negative cells HepG2 [2]: no binding was observed; sensitivity of the anti-CDH6 antibody and CDH6 recombinant protein (ELISA) (recombinant protein CDH6): not more than 3.125 ng/mL

B3: DS-6000a (conjugate, chains of the INN, looked up)
VH: EVQLVQSGAEVKKPGASVKVSCKASGYTFTRNFMHWVRQAPGQGLEWMGWIYPGDGETEYAQKFQGRVTITADTSTSTAYMELSSLRSEDTAVYYCARGVYGGFAGGYFDFWGQGTLVTVSS
VL: DIQMTQSPSSLSASVGDRVTITCKASQNIYKNLAWYQQKPGKAPKLLIYDANTLQTGVPSRFSGSGSGSDFTLTISSLQPEDFATYFCQQYYSGWAFGQGTKVEIK
modifications: deruxtecan payload
**Q.** For B3, which “tumor volume / tumor growth inhibition” value [3] is on record?
**A.** no tumor growth inhibition activity

**Q.** And the “retention time of the antibody-drug conjugate measured by common procedure H” value [4]?
**A.** 7.672 min

**Q.** And the “aggregation of the antibody-drug conjugate measured by common procedure G” value [5]?
**A.** 2.68%

B4: CL069439: mouse anti-CDH6 monoclonal antibody; VH SEQ ID NO: 103, VL SEQ ID NO: 104 (antibody, V domains shown)
VH: EVQLQQSGTELVRTGASVKISCKASGYSFTGYYIHWIKQSHGESLEWIGYISCFNGDTSYNQNFKDRATFNVDTSSSTAYMQFISLTSEDSAVYYCVRGRYGNFNYFDYWGQGTTLTVSS
VL: DIVLTQSPASLAVSLGQRATISCRASESVEFYGTSLMQWFQQKPGHPPQLLIYATSNVDSGVPARFSASGSGTDFSLNIHPVEEADIAMYFCQQSRRIPWTFGGGTKLEIK
modifications: CL069439 VH; Ch069439 VH; CL069439 VL; Ch069439 VL
**Q.** With B4 as the molecule, how does the “sensitivity of the anti-CDH6 antibody and CDH6 recombinant protein (ELISA)” value (recombinant protein CDH6) read?
**A.** not more than 1.0 ng/mL

B5: CL069066: mouse anti-CDH6 monoclonal antibody; VH SEQ ID NO: 95, VL SEQ ID NO: 96 (antibody, V domains shown)
VH: EVKLLESGGGLVQPGGSLKLSCAASGFDFSRYWMTWVRQAPGKGLEWIGEINPDSSTINYTPSLKDKFIISRDNAKNTLYLQMNKVTSEDTALYYCTRRPHYYGYFDSWGQGTTLTVSS
VL: DIVLTQSPASLAVSLGQRATISCRASESVEYYGTTLMQWYQQKPGQPPQLLIYAGSNVESGVPARFSGSGSGTEFSLNIHPVEEDDIGMYFCQQSRKVPWTFGGGTKLEIK
modifications: CL069066 VH; Ch069066 VH; CL069066 VL; Ch069066 VL
**Q.** Which “sensitivity of the anti-CDH6 antibody and CDH6 recombinant protein (ELISA)” value (recombinant protein CDH6) does the source give for B5 here?
**A.** not more than 6.3 ng/mL
